Data on 1 substance can be found in patent US10613105.

For the test, the target named is TLR2/6 receptor expressed on NIH 3T3 TLR2/6 receptor cells (whole-cell sensor elements, printed or pipetted). The experiment in a line: fluorescence of rhodamine-labeled pyrogen bound to printed or pipetted receptor cells on a membrane, against the control cell line and membrane; after drying, ethanol fixing or storage at 4° C.

Consider “Pam3CSK4 with rhodamine labeling (peptide)”, for which the delta of the fluorescence intensity is over 3000 a.u.
